Where two headings read alike, the source gives them in different places.
Key:
[1] = target: T1, recombinant N protein of SARS-CoV-2 (whole length, 419 amino acids) (SARS-CoV-2, UniProt P0DTC9 1-419)
T1 construct: also called SARS-CoV-2 N protein; SARS-CoV-2 nucleocapsid protein

[2] = target: T1, recombinant N protein of SARS-CoV-2 …; remark: listed apart in the source
[3] = target: T1, recombinant N protein of SARS-CoV-2 …; remark: listed apart in the source
[4] = target: T1, recombinant N protein of SARS-CoV-2 …; remark: listed apart in the source

B1: anti-N protein antibody C12 (antibody, V domains shown)
VH: EVQLQESGGGLVRPGGSLKLSCAASGFTFSDYYMYWVRQTPEKRLEWVATISDGGRYSYYPDSVKGRFTVSRDNAKNNLYLQMSSLKSEDTAMYYCVRDRYDGWGSDFDVWGAGTTVTVS
VL: DVQITQSPSSMYASLGERVTITCKASQDIKSYLSWYQQKPWKSPKTLIYYATSLADGVPSRFSGSGSGQDYSLTISSLESDDTATYYCLQHGESPWTFGGGTKLEIKR
luminescence amount ratio (10 ng/mL/0 ng/mL) [1]: 847
luminescence amount ratio (10 ng/mL/0 ng/mL) [2]: 1.3
luminescence amount ratio (10 ng/mL/0 ng/mL) [3]: 52.8
luminescence amount ratio (10 ng/mL/0 ng/mL) [4]: 22.8

— US20250258173A1 (FUJIREBIO, published 2025)
